± gives the standard error. For some assays here: Fewer inactive variants are shown than the library holds.
B1: glmS ribozyme (parent)
chain: AUAAAAGCGCCAGAACUACAGAAAUGUAGUUGACGAGGAGGAGGUUUAUCGAAUUUUCGGCGGAUGCCUCCAAA

How the values were obtained:
Details in all cases: with glucosamine-6-phosphate
glucosamine-6-phosphate [1] = variants of: B1; experiment: self-cleavage kobs at 40 uM GlcN6P; higher = faster cleavage; RNA array
Procedure, shortened: (§1)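 Tiles bearing barcoded ribozyme variants, transcribed in situ by E. coli RNA polymerase on sequenced MiSeq chips, were imaged over ~14 h at 37 °C using a hybridised Cy3 probe. Glucosamine-6-phosphate was supplied at 40 μM to 10 mM in HEPES/KCl/Mg(OAc)2 buffer. kobs came from one- or two-exponential decay fits to normalised per-tile medians, and weighted Michaelis–Menten fits then provided kcat and KM.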

glucosamine-6-phosphate [2] = variants of: B1; experiment: self-cleavage kobs at 160 uM GlcN6P; higher = faster cleavage; RNA array
Procedure, shortened: as §1

glucosamine-6-phosphate [3] = variants of: B1; experiment: self-cleavage kobs at 640 uM GlcN6P; higher = faster cleavage; RNA array
Procedure, shortened: as §1

glucosamine-6-phosphate [4] = variants of: B1; experiment: self-cleavage kobs at 2500 uM GlcN6P; higher = faster cleavage; RNA array
Procedure, shortened: as §1

glucosamine-6-phosphate [5] = variants of: B1; experiment: self-cleavage kobs at 10000 uM GlcN6P; higher = faster cleavage; RNA array
Procedure, shortened: as §1

glucosamine-6-phosphate [6] = variants of: B1; experiment: kcat; higher = faster cleavage; RNA array
Procedure, shortened: as §1

glucosamine-6-phosphate [7] = variants of: B1; experiment: KM; higher = weaker cofactor use; RNA array
Procedure, shortened: as §1

| Variant | self-cleavage kobs at 40 uM GlcN6P (glucosamine-6-phosphate [1]) [s⁻¹] | self-cleavage kobs at 160 uM GlcN6P (glucosamine-6-phosphate [2]) [s⁻¹] | self-cleavage kobs at 640 uM GlcN6P (glucosamine-6-phosphate [3]) [s⁻¹] | self-cleavage kobs at 2500 uM GlcN6P (glucosamine-6-phosphate [4]) [s⁻¹] | self-cleavage kobs at 10000 uM GlcN6P (glucosamine-6-phosphate [5]) [s⁻¹] | kcat (glucosamine-6-phosphate [6]) [s⁻¹] | KM (glucosamine-6-phosphate [7]) [µM] |
| --- | --- | --- | --- | --- | --- | --- | --- |
| A12G C16G A53U C71A | < 1e-05 |  |  |  |  |  |  |
| G35U G63U | < 1e-05 | < 1e-05 | < 1e-05 | < 1e-05 | < 1e-05 |  |  |
| G38A U46G | < 1e-05 | < 1e-05 | < 1e-05 | < 1e-05 | < 1e-05 |  |  |
| G13C C61A C71U | < 1e-05 |  |  |  |  |  |  |
| U56A U57A |  |  | 4.44e-05 ± 1.7e-05 | 0.000155 ± 3.3e-05 | 0.00025 ± 4.4e-05 | 0.000351 ± 3.9e-05 | 3720 ± 820 |
| A12C G60A |  | < 1e-05 | < 1e-05 |  |  | < 1e-05 |  |
| C8A C50U G51C A53C U65A | < 1e-05 |  | < 1e-05 |  |  |  |  |
| A15C U65C |  |  |  | 9.83e-05 ± 2.2e-05 | 6.14e-05 ± 1e-05 | 7.01e-05 ± 1.5e-05 |  |
| G40A G66U |  |  | 6.02e-05 ± 1.2e-05 | 0.000124 ± 2e-05 | 0.000203 ± 3.5e-05 | 0.000238 ± 1.9e-05 | 2050 ± 330 |
| A42C U54A | < 1e-05 | < 1e-05 | < 1e-05 | < 1e-05 |  |  |  |
| A42G U55A G63C | < 1e-05 |  |  | < 1e-05 |  |  |  |
| A14U G35A |  |  |  |  |  |  | 6.51 ± 1.5 |
| G29C G66U |  |  |  | 7.9e-05 ± 2e-05 | 5.98e-05 ± 1e-05 | 6.74e-05 ± 1.2e-05 |  |
| A12U U30G U56G | 0.000609 ± 0.00013 |  |  |  | 0.0339 ± 0.0098 |  |  |
| G43U G59C | < 1e-05 | < 1e-05 | < 1e-05 | < 1e-05 | < 1e-05 |  |  |
| U45C C50U | < 1e-05 | < 1e-05 | < 1e-05 |  |  |  |  |
| C50G C58G G66U C68A | 6.12e-05 ± 1.5e-05 | 0.000177 ± 4e-05 | 0.000228 ± 8e-05 | 0.000368 ± 6.5e-05 | 0.00013 ± 2e-05 |  |  |
| C58U G60A | < 1e-05 |  | < 1e-05 | < 1e-05 | < 1e-05 |  |  |
| G37U A42G | < 1e-05 |  | < 1e-05 | < 1e-05 |  |  |  |
| A48U C50G G59U G66U |  | < 1e-05 |  |  |  | 1.53e-05 ± 4.3e-06 |  |
| U30G G66A | 0.000144 ± 3.9e-05 |  |  |  |  |  |  |

From the supplement of paper PMC7125110
